Assay results published in the Immune Epitope Database (IEDB).
Blank lines part the entries; values can stand above or below the sequence they belong to.

Legend:
HLA-B*07:02 = experiment: IEDB peptide-MHC binding, purified MHC/competitive/radioactivity; filed as Kd, often an IC50 or EC50 that approximates it; ≥ and ≤ were set here for values at or beyond the usual limits of such assays
HLA-B*53:01 = experiment: as above
HLA-B*35:01 = experiment: as above
HLA-B*51:01 [1] = experiment: as above
HLA-B*54:01 = experiment: as above
HLA-B*15:01 [2] = experiment: IEDB peptide-MHC binding, purified MHC/competitive/fluorescence; ≥ and ≤ were set here for values at or beyond the usual limits of such assays
HLA-A*02:01 [3] = experiment: as above
HLA-A*24:02 = experiment: as above; conditions: source organism: Zaire ebolavirus
HLA-A*03:01 = experiment: as above
HLA-A*11:01 = experiment: as above; conditions: source organism: Zaire ebolavirus
HLA-A*02:06 = experiment: IEDB peptide-MHC binding, purified MHC/competitive/radioactivity; filed as Kd, often an IC50 or EC50 that approximates it; ≥ and ≤ were set here for values at or beyond the usual limits of such assays
HLA-A*68:02 = experiment: as above; conditions: source organism: Dengue virus 1 Brazil/97-11/1997
HLA-A*02:03 = experiment: as above
HLA-A*02:17 = experiment: as above
HLA-A*02:01 [4] = experiment: as above
HLA-A*01:01 = experiment: IEDB peptide-MHC binding, purified MHC/direct/fluorescence; filed as Kd, often an IC50 or EC50 that approximates it; ≥ and ≤ were set here for values at or beyond the usual limits of such assays; conditions: source organism: Homo sapiens
HLA-B*18:01 = experiment: IEDB peptide-MHC binding, purified MHC/competitive/fluorescence; filed as Kd, often an IC50 or EC50 that approximates it; ≥ and ≤ were set here for values at or beyond the usual limits of such assays; conditions: source organism: Homo sapiens
HLA-B*27:03 = experiment: as above; conditions: source organism: Homo sapiens
HLA-B*51:01 [5] = experiment: as above; conditions: source organism: Homo sapiens
HLA-A*69:01 = experiment: as above; conditions: source organism: Homo sapiens
HLA-B*46:01 = experiment: as above; conditions: source organism: Homo sapiens
HLA-B*39:01 = experiment: as above; conditions: source organism: Homo sapiens
HLA-B*57:01 = experiment: as above; conditions: source organism: Homo sapiens
HLA-A*02:01 [6] = experiment: as above; conditions: source organism: Homo sapiens
HLA-B*08:01 = experiment: IEDB peptide-MHC binding, purified MHC/competitive/radioactivity; filed as Kd, often an IC50 or EC50 that approximates it; ≥ and ≤ were set here for values at or beyond the usual limits of such assays; conditions: source organism: Dengue virus 3 Sri Lanka/1266/2000
HLA-B*15:01 [7] = experiment: as above; conditions: source organism: Dengue virus 3 Sri Lanka/1266/2000
[8] = source organism: Triticum aestivum
[9] = source organism: Zaire ebolavirus
[10] = source organism: Dengue virus 2 Jamaica/1409/1983
[11] = source organism: Vaccinia virus WR
[12] = source organism: Dengue virus 4 Philippines/H241/1956
[13] = source organism: Dengue virus 3 Martinique/1243/1999
[14] = source organism: Dengue virus 3 China/80-2/1980

- Kd (HLA-B*07:02; [8]): 6870 nM
- Kd (HLA-B*53:01; [8]): ≥ 37500 nM
- Kd (HLA-B*35:01; [8]): 15000 nM
- Kd (HLA-B*51:01 [1]; [8]): 12600 nM
- Kd (HLA-B*54:01; [8]): ≥ 87700 nM
Sequence: QPLSQVSF

- Kd (HLA-B*07:02; [8]): 632 nM
- Kd (HLA-B*53:01; [8]): ≥ 22000 nM
- Kd (HLA-B*35:01; [8]): 369 nM
- Kd (HLA-B*51:01 [1]; [8]): 150 nM
- Kd (HLA-B*54:01; [8]): ≥ 23400 nM
Sequence: QPYLQLQPFL

Sequence: QQTNAMVTL
- IC50 (HLA-B*15:01 [2]; [9]): ≥ 76000 nM
- IC50 (HLA-A*02:01 [3]; [9]): 38500 nM
- IC50 (HLA-A*24:02): 59100 nM

Sequence: QTNAMVTLR
- IC50 (HLA-A*03:01; [9]): 16200 nM
- IC50 (HLA-A*11:01): 1200 nM

Sequence: QVFGTAYGV
- Kd (HLA-A*02:06; source organism: Dengue virus 1 Brazil/97-11/1997): 7.26 nM
- Kd (HLA-A*68:02): 0.95 nM

Sequence: QVPKLLLWF
- IC50 (HLA-B*15:01 [2]; source organism: Variola virus): ≥ 371000 nM
- IC50 (HLA-A*02:01 [3]; source organism: Variola virus): 2060 nM

Sequence: RLITVNPIV
- Kd (HLA-A*02:03; [10]): 62.7 nM
- Kd (HLA-A*02:17; [10]): 621 nM

Sequence: SKRERQLAK
- IC50 (HLA-A*03:01; source organism: Vaccinia virus Copenhagen): 30400 nM

Sequence: SPEGEETII
- Kd (HLA-B*07:02; [11]): 11100 nM
- Kd (HLA-B*53:01; [11]): 270 nM
- Kd (HLA-B*35:01; [11]): ≥ 40600 nM
- Kd (HLA-B*51:01 [1]; [11]): 15900 nM
- Kd (HLA-B*54:01; [11]): ≥ 78100 nM

Sequence: TLIASLVMLL
- Kd (HLA-A*02:03; [12]): 28.6 nM
- Kd (HLA-A*02:17; [12]): 57.9 nM
- Kd (HLA-A*02:01 [4]; [12]): 49.4 nM

Sequence: TNTTTEDHK
- IC50 (HLA-A*11:01): ≥ 110000 nM

Sequence: TTAAGPPKA
- IC50 (HLA-A*02:01 [3]; [9]): 11700 nM
- IC50 (HLA-A*11:01): 40600 nM

Sequence: TVAANEMGL
- Kd (HLA-A*68:02): 66.8 nM

Sequence: VAGLITGGR
- IC50 (HLA-A*03:01; [9]): ≥ 104000 nM
- IC50 (HLA-A*02:01 [3]; [9]): ≥ 655000 nM
- IC50 (HLA-A*11:01): 26100 nM

Sequence: VIFILLMLV
- Kd (HLA-A*02:03; [13]): 171 nM
- Kd (HLA-A*02:06; [13]): 2350 nM
- Kd (HLA-A*02:17; [14]): 914 nM

Sequence: VLWEGGHDL
- Kd (HLA-A*02:17; [12]): 453 nM
- Kd (HLA-A*02:01 [4]; [12]): 14.3 nM

Sequence: VQRQIQVHA
- IC50 (HLA-B*15:01 [2]; [9]): 13500 nM
- IC50 (HLA-A*02:01 [3]; [9]): 45500 nM

- Kd (HLA-A*01:01): 5.4 nM
- Kd (HLA-B*18:01): ≥ 20000 nM
- Kd (HLA-B*27:03): ≥ 20000 nM
- Kd (HLA-B*51:01 [5]): ≥ 20000 nM
- Kd (HLA-A*69:01): ≥ 20000 nM
- Kd (HLA-B*46:01): ≥ 20000 nM
- Kd (HLA-B*39:01): ≥ 20000 nM
- Kd (HLA-B*57:01): ≥ 20000 nM
- Kd (HLA-A*02:01 [6]): ≥ 20000 nM
Sequence: VTSSVSSGY

Sequence: WMTTEDMLAV
- Kd (HLA-A*02:03; [10]): 20.4 nM
- Kd (HLA-A*02:06; [10]): 25.1 nM
- Kd (HLA-A*02:17; [10]): 2510 nM
- Kd (HLA-A*02:01 [4]; [10]): 82.4 nM

Sequence: YLALLAAFKV
- Kd (HLA-A*02:03; [10]): 15 nM
- Kd (HLA-A*02:06; [10]): 9.62 nM
- Kd (HLA-A*02:17; [10]): 62.3 nM
- Kd (HLA-A*02:01 [4]; [10]): 1.62 nM

Sequence: YPDLNFDNTY
- Kd (HLA-B*07:02; [11]): ≥ 69600 nM
- Kd (HLA-B*53:01; [11]): 22.2 nM
- Kd (HLA-B*35:01; [11]): 18.4 nM
- Kd (HLA-B*51:01 [1]; [11]): ≥ 69600 nM
- Kd (HLA-B*54:01; [11]): 1750 nM

Sequence: YPSMFTLRHI
- Kd (HLA-B*07:02; [11]): 15.5 nM
- Kd (HLA-B*53:01; [11]): 0.943 nM
- Kd (HLA-B*35:01; [11]): 446 nM
- Kd (HLA-B*51:01 [1]; [11]): 2.58 nM
- Kd (HLA-B*54:01; [11]): 20.8 nM

Sequence: YQLWTALVSL
- Kd (HLA-B*08:01): 974 nM
- Kd (HLA-A*02:06; source organism: Dengue virus 3 Sri Lanka/1266/2000): 5.87 nM
- Kd (HLA-A*02:17; [14]): 91.4 nM
- Kd (HLA-B*15:01 [7]): 191 nM

Sequence: YVSAIAQAKA
- Kd (HLA-A*68:02): 22 nM
